In article PMC3614804 one finds percentage of positive cells (7.5 nM IgE, positive control) and Kd data, which are given here for two substances.

pKd: −log10 of the molar value.

The target of experiment [1] is extracellular part of FcɛRIα with the transmembrane domain of Her2 at its C-terminus, displayed on the stable CHO cell line FI5F10 (UniProt P12319). In words: flow cytometry on cells; 7.5 nM IgE alone (positive control), or preincubated with 750 nM QME5 or with equimolar Omalizumab, added to FI5F10 cells; after washing 5 μg/mL FITC_GAH IgE detects membrane-binding IgE. (In general: In flow cytometry, cells or beads pass a laser one at a time.)

The next experiment concerns the target FcεRIα (Homo sapiens) (UniProt P12319). In words: given as Ka. Particulars: cited from earlier work.

As for human IgE (ligand), the percentage of positive cells (7.5 nM IgE, positive control) in experiment [1] was determined as 69.1%.

Regarding IgE Cε3 Cε3 (from UniProt P01854), the pKd (in general, −log10 of the Kd, conventionally taken in molar units) with FcεRIα (Homo sapiens) is 6.70.
